Experimental data: patent US20260234226A1 (IMAGINAB, published 2026)

T1: DLL3 on tumor cells of the SHP-77 and NCI-H82 cell lines (UniProt Q9NYJ7 27-618, limits assumed)
T1 construct: whole, on cells; also called cellular targets
T1 sequence (looked up): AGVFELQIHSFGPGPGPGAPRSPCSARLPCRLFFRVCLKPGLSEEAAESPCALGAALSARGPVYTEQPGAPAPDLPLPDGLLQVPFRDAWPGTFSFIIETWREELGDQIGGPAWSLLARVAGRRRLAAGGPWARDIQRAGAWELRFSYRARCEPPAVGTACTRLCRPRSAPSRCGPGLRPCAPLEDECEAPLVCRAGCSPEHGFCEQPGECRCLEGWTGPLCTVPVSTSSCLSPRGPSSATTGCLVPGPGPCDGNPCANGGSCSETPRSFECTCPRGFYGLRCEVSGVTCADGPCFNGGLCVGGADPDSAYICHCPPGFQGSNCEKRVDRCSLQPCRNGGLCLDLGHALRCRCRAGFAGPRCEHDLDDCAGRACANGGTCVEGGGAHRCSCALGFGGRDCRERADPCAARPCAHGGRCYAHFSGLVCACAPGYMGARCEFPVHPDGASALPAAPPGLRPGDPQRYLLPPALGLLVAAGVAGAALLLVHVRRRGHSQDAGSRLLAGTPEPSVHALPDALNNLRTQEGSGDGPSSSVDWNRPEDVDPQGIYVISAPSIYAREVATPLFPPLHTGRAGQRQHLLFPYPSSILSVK


How the values were obtained:
[1] = target: T2, his-tagged-DLL3 antigen (purified human/cynomolgus/dog/mouse/rat or minipig DLL3 antigen) (human/cynomolgus/dog/mouse/rat or …); experiment: biolayer interferometry (Octet BLItz), his-tagged DLL3 on nickel-NTA tip, minibody in solution
T2 construct: Antigen loaded on nickel-NTA tips for biolayer interferometry; also called Delta-like protein 3
T2 sequence (Q9NYJ7 whole entry): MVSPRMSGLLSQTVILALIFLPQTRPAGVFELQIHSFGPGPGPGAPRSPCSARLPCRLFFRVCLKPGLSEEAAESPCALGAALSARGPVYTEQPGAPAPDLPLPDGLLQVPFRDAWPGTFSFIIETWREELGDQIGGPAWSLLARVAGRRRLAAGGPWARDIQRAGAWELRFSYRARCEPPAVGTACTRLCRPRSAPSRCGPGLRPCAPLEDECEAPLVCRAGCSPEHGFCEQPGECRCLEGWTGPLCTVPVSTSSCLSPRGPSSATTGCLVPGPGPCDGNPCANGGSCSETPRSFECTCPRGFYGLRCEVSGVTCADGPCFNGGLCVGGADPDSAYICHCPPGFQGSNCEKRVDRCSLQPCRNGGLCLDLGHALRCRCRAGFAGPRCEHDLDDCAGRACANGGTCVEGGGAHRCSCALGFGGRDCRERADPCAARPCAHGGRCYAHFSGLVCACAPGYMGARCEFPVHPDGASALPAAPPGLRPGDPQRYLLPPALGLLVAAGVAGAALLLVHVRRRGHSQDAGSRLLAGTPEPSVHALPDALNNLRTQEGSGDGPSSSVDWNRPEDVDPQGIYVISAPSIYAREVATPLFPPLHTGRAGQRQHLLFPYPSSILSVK
Experimental: (§1) As disclosed herein, the binding kinetics of the novel antigen binding constructs to a purified human/cynomolgus/dog/mouse/rat or minipig DLL3 antigen was assessed using biolayer interferometry (TABLE 9) (FIG. 9). The his-tagged-DLL3 antigen was diluted in phosphate buffer saline (PBS) at 10 μg/mL and loaded on a nickel-NTA tip until saturation. The on-rate (Kon) and off-rate (Koff), and the dissociation constant KD, where recorded on Octet BLItz instrument. Dilution samples of the antigen binding construct were prepared in PBS at concentrations between 100 nM and 0.1 nM, by 2.5× dilutions and binding curves recorded at each concentration. Off-rate curves were recorded by immersion of the tip in PBS.

[2] = target: T3, purified human/cynomolgus/dog/mouse/rat or minipig DLL3 antigen (ELISA coat) (human/cynomolgus/dog/mouse/rat or …); experiment: ELISA, plate coated with purified DLL3 antigen, HRP secondary (FIG. 8)
T3 construct: May be the same protein as the his-tagged antigen used for BLI
T3 sequence (Q9NYJ7 whole entry): as above
Experimental: (§2) Binding affinity of the novel antigen binding constructs to a purified human/cynomolgus/dog/mouse/rat or minipig DLL3 antigen was assessed using ELISA. For this assay, a 96 well ELISA plate was coated with the DLL3 antigen diluted to a concentration of […] in coating buffer (0.05M sodium carbonate-bicarbonate buffer, pH 9.6). 100 μl of this coating solution was added to each well in the plate and incubate at 4° C. overnight. The plate was washed 3 times with 300 μl per well of washing buffer (PBS with 0.05% Tween-20). After the last wash, the plate was blocked by adding to each well 200 μl of blocking buffer (PBS with 1% BSA) warmed to room temperature. The plate was then incubated at room temperature for 1 hour under gentle agitation. After blocking, the plate was washed 3 times with 300 μl per well of washing buffer. Dilution samples for each minibody were created by making 2.5× dilutions from a starting sample at 100 ng/mL, or 250 ng/mL, or 1000 ng/mL or 3000 ng/mL in 100 μL sample buffer (PBS with 1% BSA). The dilution samples were transferred to the assay plate and incubated at room temperature for 1 hour under gentle agitation. The plate was then washed 3 times with 300 μl per well of washing buffer.
Detection was performed by adding 100 μl of HRP labeled detection secondary antibody at an appropriate dilution and incubating the plate at room temperature for 1 hour under gentle agitation. The plate was then washed 3 times with 300 μl per well of washing buffer. For color development, 100 μl of TMB substrate regent, pre-warmed to room temperature, was added to the plate and incubated in the dark at room temperature for 15 min. The reaction was then stopped by adding 100 μl of 650 nm stop solution to the plate and mixed for 1 min at room temperature under gentle agitation. The plate is recorded by reading OD at 650 nm in a plate reader within 20 min after terminating the reaction.

[3] = target: T3, purified human/cynomolgus/dog/mouse/rat …; experiment: ELISA on plate-coated recombinant DLL3 antigen, A650 readout, left panel 'DLL3 ELISA'; the table gives no unit, nM is from the axis 'Antibody Concentration (nM)'
Experimental: as §2, with “The dilution samples were transferred to the assay plate and incubated at room temperature for 1 hour under gentle agitation. The plate was then washed 3 times with 300 μl per well of washing buffer.” left out
(§3) Detection was performed by adding 100 μl of HRP labeled detection secondary antibody at an appropriate dilution and incubating the plate at room temperature for 1 hour under gentle agitation. […] The plate is recorded by reading OD at 650 nm in a plate reader within 20 min after terminating the reaction.

[4] = target: T2, his-tagged-DLL3 antigen (purified …); experiment: biolayer interferometry, his-tagged DLL3 on a Ni-NTA tip, minibody at 100 nM; the table gives no unit, nm is from the axis 'Binding (nm)'
Experimental: as §1

[5] = target: T1, DLL3 on tumor cells of the SHP-77 and …; experiment: flow cytometry on NCI-H82 tumor cells, mean fluorescence; the legend gives no unit, nM is from the axis '[Minibody],nM'
Experimental: (§4) As disclosed herein, the binding of constructs to cellular targets was assessed using flow cytometry. Stock of 2.5× serial dilution of minibodies were created starting from a concentration of 100 nM in 180 μl FACS buffer (PBS 2% FBS). Cells were added to a Corning V-bottom polypropylene cell culture plate at 200,000 cells/well. The cells were centrifuged at 100 rpm for 3 minutes and the supernatant discarded. The minibody dilution series were transferred to the plate containing cell pellets and incubated for 1 hr at 4° C. The plate was then washed 3 times with FACS buffer at 200 μl/well, discarding supernatant after each wash by centrifugation at 1000 rpm. 50 μl/well of detection antibody R&D AlexaFluor-647 Goat anti Human (H+L) was added at a 1:100 dilution in FACS buffer and incubated at 4° C. 1 hr. The plate was washed 3 times with FACS buffer at 200 μl/well, discarding supernatant after each wash by centrifuging at 1000 rpm. Cells were then fixed by adding 100 μl of 1% paraformaldehyde in PBS and incubating at room temperature for 15 minutes. 100 μl of PBS were added to each well and the plate was analyzed by flow cytometry using the allophycocyanin fluorescence setting.

[6] = target: T3, purified human/cynomolgus/dog/mouse/rat …; experiment: ELISA on plate-coated recombinant DLL3 antigen, A650 readout, panel with IAB57M1-7, IAB57M2-8, IAB57M1-3 and IAB57M2-6; the table gives no unit, nM is from the axis 'Antibody Concentration (nM)'
Experimental: as §2, with “The dilution samples were transferred to the assay plate and incubated at room temperature for 1 hour under gentle agitation. The plate was then washed 3 times with 300 μl per well of washing buffer.” left out
as §3

[7] = target: T1, DLL3 on tumor cells of the SHP-77 and …; experiment: flow cytometry on SHP-77 tumor cells, mean fluorescence; the legend gives no unit, nM is from the axis '[Minibody],nM'
Experimental: as §4

Row | Binder | Kd [1] [nM] | koff [1] [s⁻¹] | kon [1] [M⁻¹ s⁻¹] | EC50 [2] [nM] | EC50 [3] [nM] | R equilibrium [4] [nm] | EC50 [5] [nM] | EC50 [6] [nM] | EC50 [7] [nM]
1 | IAB57M1-1 (other, Parental minibody; also called parental minibody IAB57M1-1) EIVMTQSPATLSVSPGERATLSCKASQSVSNDVVWYQQKPGQAPRLLIYYASNRYTGIPARFSGSGSGTEFTLTISSLQSEDFAVYYCQQDYTSPWTFGQGTKLEIKGSTSGGGSGGGSGGGGSSQVQLVQSGAEVKKPGASVKVSCKASGYTFTNYGMNWVRQAPGQGLEWMGWINTYTGEPTYADDFKGRVTMTTDTSTSTAYMELRSLRSDDTAVYYCARIGDSSPSDYWGQGTLVTVSSEPKSSDKTHTCPPCPPCGGGSSGGGSGGQPREPQVYTLPPSREEMTKNQVSLTCLVKGFYPSDIAVEWESNGQPENNYKTTPPVLDSDGSFFLYSKLTVDKSRWQQGNVFSCSVMHEALHNHYTQKSLSLSPG | 3.33 | 0.00279 | 838000 | 0.0946 | 0.115 |  |  |  | 
2 | IAB57M2-2 (other, Parental minibody; Signal peptide left out; also called parental minibody IAB57M2-2) QVQLVQSGAEVKKPGASVKVSCKASGYTFTNYGMNWVRQAPGQGLEWMGWINTYTGEPTYADDFKGRVTMTTDTSTSTAYMELRSLRSDDTAVYYCARIGDSSPSDYWGQGTLVTVSSGSTSGGGSGGGSGGGGSSEIVMTQSPATLSVSPGERATLSCKASQSVSNDVVWYQQKPGQAPRLLIYYASNRYTGIPARFSGSGSGTEFTLTISSLQSEDFAVYYCQQDYTSPWTFGQGTKLEIKEPKSSDKTHTCPPCPPCGGGSSGGGSGGQPREPQVYTLPPSREEMTKNQVSLTCLVKGFYPSDIAVEWESNGQPENNYKTTPPVLDSDGSFFLYSKLTVDKSRWQQGNVFSCSVMHEALHNHYTQKSLSLSPG | 3.07 | 0.00214 | 698000 | 0.12 | 0.132 | 0.876 |  |  | 
3 | IAB57M2-6 (other, Signal peptide left out) QVQLVQSGAEVKKPGASVKVSCKASGYTFTNYGMNWVRQAPGQGLEWMGWINTYTGEPTYADDFKGRVTMTTDTSTSTAYMELRSLRSDDTAVYYCARIGDSSPSDYWGQGTLVTVSSGSTSGGGSGGGSGGGGSSEIVMTQSPATLSVSPGERATLSCKASQSVSNDVVWYQQKPGQAPRLLIYYASNRNTGIPARFSGSGSGTEFTLTISSLQSEDFAVYYCQQDYTSPWTFGQGTKLEIKEPKSSDKTHTCPPCPPCGGGSSGGGSGGQPREPQVYTLPPSREEMTKNQVSLTCLVKGFYPSDIAVEWESNGQPENNYKTTPPVLDSDGSFFLYSKLTVDKSRWQQGNVFSCSVMHEALHNHYTQKSLSLSPG | < 0.001 | < 1e-07 | 785000 | 0.161 |  |  | 0.063 | 0.157 | 0.014
4 | IAB57M2-4 (other, Signal peptide left out) QVQLVQSGAEVKKPGASVKVSCKASGYTFTNYGMNWVRQAPGQGLEWMGWINTYTGEPTYADDFKGRVTMTTDTSTSTAYMELRSLRSDDTAVYYCARIGDSSPSDYWGQGTLVTVSSGSTSGGGSGGGSGGGGSSEIVMTQSPATLSVSPGERATLSCKASQSVSNDVVWYQQKPGQAPRLLIYDASNRYTGIPARFSGSGSGTEFTLTISSLQSEDFAVYYCQQDYTSPWTFGQGTKLEIKEPKSSDKTHTCPPCPPCGGGSSGGGSGGQPREPQVYTLPPSREEMTKNQVSLTCLVKGFYPSDIAVEWESNGQPENNYKTTPPVLDSDGSFFLYSKLTVDKSRWQQGNVFSCSVMHEALHNHYTQKSLSLSPG | 4.84 | 0.00281 | 581000 | 0.118 |  | 0.911 |  |  | 
5 | IAB57M1-7 (other, Signal peptide left out) EIVMTQSPATLSVSPGERATLSCKASQSVSNDVVWYQQKPGQAPRLLIYDASNRNTGIPARFSGSGSGTEFTLTISSLQSEDFAVYYCQQDYTSPWTFGQGTKLEIKGSTSGGGSGGGSGGGGSSQVQLVQSGAEVKKPGASVKVSCKASGYTFTNYGMNWVRQAPGQGLEWMGWINTYTGEPTYADDFKGRVTMTTDTSTSTAYMELRSLRSDDTAVYYCARIGDSSPSDYWGQGTLVTVSSEPKSSDKTHTCPPCPPCGGGSSGGGSGGQPREPQVYTLPPSREEMTKNQVSLTCLVKGFYPSDIAVEWESNGQPENNYKTTPPVLDSDGSFFLYSKLTVDKSRWQQGNVFSCSVMHEALHNHYTQKSLSLSPG |  |  |  | 0.111 |  |  |  |  | 
6 | IAB57M1-5 (other, Signal peptide left out) EIVMTQSPATLSVSPGERATLSCKASQSVSNDVVWYQQKPGQAPRLLIYYASNRNTGIPARFSGSGSGTEFTLTISSLQSEDFAVYYCQQDYTSPWTFGQGTKLEIKGSTSGGGSGGGSGGGGSSQVQLVQSGAEVKKPGASVKVSCKASGYTFTNYGMNWVRQAPGQGLEWMGWINTYTGEPTYADDFKGRVTMTTDTSTSTAYMELRSLRSDDTAVYYCARIGDSSPSDYWGQGTLVTVSSEPKSSDKTHTCPPCPPCGGGSSGGGSGGQPREPQVYTLPPSREEMTKNQVSLTCLVKGFYPSDIAVEWESNGQPENNYKTTPPVLDSDGSFFLYSKLTVDKSRWQQGNVFSCSVMHEALHNHYTQKSLSLSPG |  |  |  | 0.125 |  |  |  |  | 
7 | IAB57M2-8 (other, Signal peptide left out) QVQLVQSGAEVKKPGASVKVSCKASGYTFTNYGMNWVRQAPGQGLEWMGWINTYTGEPTYADDFKGRVTMTTDTSTSTAYMELRSLRSDDTAVYYCARIGDSSPSDYWGQGTLVTVSSGSTSGGGSGGGSGGGGSSEIVMTQSPATLSVSPGERATLSCKASQSVSNDVVWYQQKPGQAPRLLIYDASNRNTGIPARFSGSGSGTEFTLTISSLQSEDFAVYYCQQDYTSPWTFGQGTKLEIKEPKSSDKTHTCPPCPPCGGGSSGGGSGGQPREPQVYTLPPSREEMTKNQVSLTCLVKGFYPSDIAVEWESNGQPENNYKTTPPVLDSDGSFFLYSKLTVDKSRWQQGNVFSCSVMHEALHNHYTQKSLSLSPG |  |  |  | 0.123 |  |  |  |  | 
